Earlier results on 3 substances are cited in publication PMC7179994.

Read-outs that look alike come from different tables or passages of the source.

The target in series [1] is VLDL receptor (Homo sapiens) (UniProt P98155).
Series [2] deals with VE-cadherin (Homo sapiens) (UniProt P33151).
Series [3] shares this target. This is another data set of the same source.

Chain of VE-cadherin (Homo sapiens) (P33151 48-599): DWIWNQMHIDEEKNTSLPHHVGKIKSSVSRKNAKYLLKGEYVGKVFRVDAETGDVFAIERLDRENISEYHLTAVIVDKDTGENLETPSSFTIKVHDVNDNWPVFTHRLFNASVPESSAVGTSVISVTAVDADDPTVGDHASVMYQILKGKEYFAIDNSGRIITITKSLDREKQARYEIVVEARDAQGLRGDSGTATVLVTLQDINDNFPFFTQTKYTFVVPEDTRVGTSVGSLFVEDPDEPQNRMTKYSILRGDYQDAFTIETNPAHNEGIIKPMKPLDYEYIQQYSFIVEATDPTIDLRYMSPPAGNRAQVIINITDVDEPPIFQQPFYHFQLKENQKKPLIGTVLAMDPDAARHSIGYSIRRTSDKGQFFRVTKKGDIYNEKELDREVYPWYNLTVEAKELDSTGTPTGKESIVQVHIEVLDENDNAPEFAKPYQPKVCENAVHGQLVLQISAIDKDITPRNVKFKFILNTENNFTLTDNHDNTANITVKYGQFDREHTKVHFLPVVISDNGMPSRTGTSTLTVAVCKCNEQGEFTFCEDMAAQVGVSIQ
Chain of fibrin β15–42 15-42 (P02675 15-42): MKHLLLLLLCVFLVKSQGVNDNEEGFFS
Chain of (β15–44)2 15-44 (P02675 15-44): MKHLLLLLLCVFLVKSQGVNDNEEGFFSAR

Regarding fibrin (from UniProt P02671), the Kd in series [1] was 9.2 nM.
“fibrin β15–42 15-42 (from UniProt P02675)”: the Kd in series [2] was 267000 nM.
Regarding (β15–44)2 15-44 (from UniProt P02675), the dissociation constant Kd in series [3] is 715 nM.
